Data as given in publication PMC9706920, “Aryloxypropanolamine targets amyloid aggregates and reverses Alzheimer-like phenotypes in Alzheimer mouse models” (Alzheimer's Research & Therapy, 2022).

Biological target: T1, Flamma 552-conjugated Aβ(1–42) (Flamma 552 dye conjugated (position not given))
T1 construct: numbers count on: the Aβ peptide; also called Flamma 552-labeled Aβ(1–42); monomeric Aβ(1–42) labeled with fluorescent dye Flamma 552
Assay: peptide or protein array; Aβ hexapeptides and full-length Aβ(1–42), each with a C-terminal cysteine, immobilised on maleimide-activated microplates (50 μg/mL, binding buffer 0.1 M sodium phosphate, 0.15 M NaCl, 10 mM EDTA, pH 7.2); Flamma 552-Aβ(1–42) 10 μM in deionized water (10% DMSO), 37°C, 2 h; fluorescence 555/580 nm as baseline before YIAD002
Settings: both partners purified

Row | binding result | Binder
1 | binds | KLVFFAC (C-terminal cysteine coupled to the maleimide-activated microplate, amyloid-β residues 16-21; numbers count on: the Aβ peptide; cysteine residue at the C-terminal, told in words, for immobilisation; source: synthetic peptide (Fmoc solid phase peptide synthesis)) [Aβ(16–21) fragment KLVFFA with a cysteine residue at the C-terminal]
2 | binds | IGLMVGC (C-terminal cysteine coupled to the maleimide-activated microplate, amyloid-β residues 32-37; numbers count on: the Aβ peptide; cysteine residue at the C-terminal, told in words, for immobilisation; source: synthetic peptide (Fmoc solid phase peptide synthesis)) [Aβ(32–37) fragment IGLMVG with a cysteine residue at the C-terminal]
